Measurements taken from the DeepSol protein solubility set.

Assay: soluble on expression in E. coli; label from the status in PepcDB or PDB records

Sequence | soluble on expression in E. coli
MSLSTLQDLEKTLWATADKMRANMDPAEYKHIVLGLIFLKYISDSFAGRRAELERKFSDAGDDYYLGGDDPTYLASELEERDYYKEVNVFWVPEPARWESLRAAAKQVDIGKRIDDALADIEAENPQLKNILDKRYARAQLPDGKLGELVDMISIIGFSSDANKARDLLGQVYEYFLGQFASAEGKRGGQFYTPASIVKTLVAVLNPHHGKVYDPCCGSGGMFVQSEKFIEAHGGKLGDVSIYGQESNPTTWRLAAMNLAIRGMDFNLGKEPADSFIRNQHSDLRADFVLANPPFNISDWWHGSLDGDSRWVYGTPPQGNANYAWLQHMLFHLKSSGRAGIVLANGSMSSSQNSEGDIRRAMVEADVVEVMVALPGQLFFNTQIPACLWFLAKQKNKRPGEVLFIDARKLGTNISRVQIELLDSDIESIAQTVANWRGVPLEVDGEIAEYADVAGFCRSVPLAEIAEHGHVLTPGRYVGAEAVEEGHHHHHH | not soluble
MSLSTNLITTGIGTEQLEQLLSEYFPTYQISRIDRDSTGRKGALEHHLNAIQTGKSQILIGTQMLAKGHHFPNVTLVALVNVDSALFSTDFRAEERLAQLYLQVAGRAGRAEKTGEVVLQTHYPDHPLLKCLLKDGYNAFAEEALKMRQVMALPPFTAQVLFRATGKQSDKVEHLLQNLTAYFQHKSVELGIEGIQISPPFSAIVAKKAGYYRWLLLIQHQSRSAIQQLLNVFDQEKSALNLPANIRLSLDVDPYDMSEGHHHHHH | not soluble
MSLSTPPRAFSLVETGEALTRGDEPSPTRSAVLTRLSHSHMRFGTFQRLAYLDRRDLMVQLVDHVIESYFPDLADESDRPAVLMRAVVSASARLLSRWMSAGFVHGVLNTDNMVVTGESFDYGPWRFLPRNDPNFVAAYFDHAGLYSFGRQPEAVFWNLQQLAGCLSLVTDQAALLAALNSFSDLYRAALRGAMLDRLGLKSRGAEADIALVNTAFRALAEGGETLRWEPFFFDWFGGAASEERALRGPRAGLYAGEAFLDLRRALADFDPDRPERLAHPAFARPEPEELIIDEVEALWSPIADADDWGPLNAKLARIDAAREAYALGQAQIEGHHHHHH | soluble
MSLSWDQVWIDVNVATMDPSISAPYGAITNAAIAVKDGKIAWLGPRSELPAFDVLSIPVYRGKGGWITPGLIDAHTHLVFAGNRANEFELRLKGATYEEIARAGGGIISTVNACREADEAELFDLGRQRLNALAKEGVTTVEIKSGYGLDTETELKILRVARELGQHHHVDVKTTFLGAHAVPPEFKDNSDGYVDLIINKMLPAVIAENLADAVDVFCENIAFNLEQTERVLSTAKAAGLQVKLHAEQLSNMGGSELAARLGAKSVDHIEYLDEAGVKALSESGTCAVLLPGAFYFLRETQKPPIDLLRQYGVPMVLASDFNPGSSPICSTLLMLNMGCTLFRLTPEEALAGLTLNAAKALGIEDNVGSLVVGKQADFCLWDIATPAQLAYSYGVNPCKDVVKNGKLIHQEGHHHHHH | soluble
MSLTAPLPYTRAANLPALLRERILILDGAMGTMIQRYKLTEAQYRGERFASHPVDVKGNNELLLLTRPEVIREIHEQYLAAGADLIETNTFGATTVAQEDYKMAELAYEMNVVAARLAREACDKYSTPDKPRFVAGAFGPTPKTASISPDVNDPGARNISFDQLRDAYYEQGKALLEGGADVFLVETIFDTLNAKAALFAIDQLFEDSGERVPVMISGTVTDASGRILSGQTVEAFWNSLRHAKPITFGLNCALGAALMRPYIAELAKICDTAVSCYPNAGLPNPMSDTGFDETPEVTSSLVDEFAAAGLVNLVGGCCGTTPEHIRAIAERVAQRKPRAWPGQYREAAEGHHHHHH | soluble
MSLTAPLRAGQMNFYDEPYNPVLNLHIQPSVKDENQRSTWPIIDTSNTSTQIARAHFEKHPPNNLRKSNFFHFVIALYDRNSQPIEVERTQFAGFVEKEKEVDGQDTRNGIHYRLSLMFQNGIRSEHDLFVRLIDSSTKQAITYEGQDKNPEMCRVLLTHEVMCSRCCEKKSCGNRNETPSDPVIIDRFFLKFFLKCNQNCLKNAGNPRDMRRFQVVLCSSARIDGPLLAVSDNMFVHNNSKHGRRTKRTDASDDSEYSESAELPSSVPVIKALFPSEGWIQGGTQVVLIGENFFEGLQVAFGTASPNWGESVQLISPHAIRVTTPPKHSAGPVDVTLQYKSKTYSRGTPLRFSYITLAEPGIEYGFQRLQKLLPKYPGDPERLPKDQILKRAAELAEALYNRTSTESLSSYYHTQFDATSDYAARTHTSPRSTLPYGAGPPALSSAVYQTSYPTVNATPAANFLNTQTGFATFGAVNPFAATLQSSSRLS | not soluble
MSLTAPRILMTRPDHYGVTYAINPWMTPESWAGNQTVALAEAATQWQALADALGAVGFALEILPGQPGLPDMVFPANAAIVFDGIALVARFRHPERQGEEAHFHAAFEALRQRGLLSAVHSLPEGVFQEGAGDCLWDASRQLFFAAHGPRSSRASIEVIAETFGQEIVRLELVDPRFYHLDTCFCVLPGGEVLTFTPALSTASLERLRAVVAPEMLIEADFAAASAFSINAVAHGREVVMANPPASLRALLEERGYHVHGLELGRFMQSGGGSYCMTLRLDRRARAEGHHHHHH | soluble
MSLTATTDGSTGASLRPLAASASDTDITIPAAAAGVPEAAARATRRATDFLLAKQDAEGWWKGDLETNVTMDAEDLLLRQFLGIQDEETTRAAALFIRGEQREDGTWATFYGGPGELSTTIEAYVALRLAGDSPEAPHMARAAEWIRSRGGIASARVFTRIWLALFGWWKWDDLPELPPELIYFPTWVPLNIYDFGCWARQTIVPLTIVSAKRPVRPAPFPLDELHTDPARPNPPRPLAPVASWDGAFQRIDKALHAYRKVAPRRLRRAAMNSAARWIIERQENDGCWGGIQPPAVYSVIALYLLGYDLEHPVMRAGLESLDRFAVWREDGARMIEACQSPVWDTCLATIALADAGVPEDHPQLVKASDWMLGEQIVRPGDWSVKRPGLPPGGWAFEFHNDNYPDIDDTAEVVLALRRVRHHDPERVEKAIGRGVRWNLGMQSKNGAWGAFDVDNTSAFPNRLPFCDFGEVIDPPSADVTAHVVEMLAVEGLAHDPRTRRGIQWLLDAQETDGSWFGRWGVNYVYGTGSVIPALTAAGLPTSHPAIRRAVRWLESVQNEDGGWGEDLRSYRYVREWSGRGASTASQTGWALMALLAAGERDSKAVERGVAWLAATQREDGSWDEPYFTGTGFPWDFSINYNLYRQVFPLTALGRYVHGEPFAKKPRAADAPAEAAPAEVKGSEGHHHHHH | soluble
MSLTDLIDIHCHLLPAVDDGSKSIEETLSLIDLLEEIGVKQHILTPHIMEEYPSNDAIFLRARFEELLAAITPDKASRLRLAAEYMLDVAFLDRLAEPLLTLGDRYILVETSYMAPPIGLMGLLADLRFKGLSPVLAHPERYLYMEEKDYVAIKKQGVMFQLNLFSLFGAYNSSASEKAYALLEAGYYDLIGTDIHHLQPIARLLSEASLPPDLEGKIKSLVENNTRLFSEGHHHHHH | not soluble
MSLTDRTIGEAAELLGVTTRTLRHWDSIGLLQPSWRTTTDYRLYTEDDVERALQILIYRAAGIGLKDIAEVLDQPDSANQHLRRQRELLVEQIGQLHRMVRAVDEILGKDAISVKEKIEIFGEDLPKYQEEAFQRWGDTPEWKESQKIQEKMTKEDFQRAKDEHEGFVEKLIDASLRGIAPGSAEGNELALAHRASIGQWYTVSANKQVILARMYVEDERFNETYKGHASYLLTLIEALAQVEGVDLENEGHHHHHH | not soluble
MSLTEATVERIRLFLIESPIKMARLQGVGNVKGTVKRVLIELTSSDGVIGWGEAAPWEVFTGTPEAAFSALDIYLRPIALGKPVRRIRALMAELDRALVGHAEAKVAIEMALLDIVGKSSGLSVADLLGGRVRDTIPLSFSIADPDFPADLERMRKMVPDGNVIYKVKTGVKPHREDLDHLEAIRKEFGDKVDLRVDYNQALAPFGAIKILRDVEEFAPTFIEQPVPRKYLDVMAQLTAALETPVLADESCFDRRDMMEVVRREAADAVSIKLMKAGGLFEAQAIMAIADIAGLPGYGGTLWEGGIGLAAGTQLIAATPGISLGCEFYMPHHVLTEDVLEERVANRAGHVVVPDGPGLGIRVSEASVRANAQVLAEGHHHHHH | not soluble
MSLTERKQRFLRRILTYYTLKRRESKWIIDYWLRNDSKLEQVHFVQNAMFAPKAMIITTYGFDADPFLFKKGEVKTTDPEKAYHDIRLTDEPLYIELNFQGMMMDDEYLSLLEENPFRPEVAVEPKLADAAMNFIAATVNRQEEERLVRLIDEALDARDKHRFQSLSDELRIIRSQLEGHHHHHH | soluble
MSLTETTDLYRMSSSLRVVALAETLQRARAFASRLGIIRVTDTTRLDCIGIPVFASIRPTALPGSLCVNAGKGLRPEEARVGAYMEAIEFAMAEYGRSAVDYVMATPRDVLDGRSRPEAILDFCPVFGAQITLDDPMPCVEAEELLSSTRCLVPAELVYVPAPAVEGVQRHFGSSSNGLCSGNSVWEASVHGLAEVIERDIQSFCFLHDTSVLVDIASLPPQPAALARQIGEAGFTLRLRYVENIFELPYFAAYVMEPDPVDAVYICGGFGCHPFKEIAAVRAICEAVQGRLSFIHGGRDDLIERHRLLAQMNGEQELAFSRKLAAKVSRPEGMIGFEAIGDRSGEVCDLSSAWEVLVAAIRKVGIAHVCRVVFTQPHDPVQVLKLIVPRLEMFDRSTRRIGPRLRDHARFHEGHHHHHH | not soluble
MSLTITENPYRLSLDIEGIGFQTADAIATSLGVAKNSLMRAEAGISHVLGELSQNGHCAVPEETLIDEASRLLQIDHPLVVEAVKNEKLTRRIVGETIDGVPCIFLESLHRAETGVASGLHRLMRGPLPWNALDPHDALPWIEETTALELSPSQRSAVTLVLASKVSIITGGPGVGKTTILKAILSVLQREKVSVALCAPTGRAAKRLTESTGIEAKTIHRLLEFDPQAFDFKRGRGNPLDASFVVVDETSMVDVVLMQKLVAAIPDHAAVVFVGDVDQLPSVGPGAVLADMISSEAIPTVRLTEIFRQAAESMIVVNAHRINQGDMPLTEGHHHHHH | soluble
MSLTKLKKVMISVIAATLLLLAGCGSSAVVKTDAGSVTQDELYEAMKTTYGNEVVQQLTFKKILEDKYTVTEKEVNAEYKKYEEQYGDSFESTLSSNNLTKTSFKENLEYNLLVQKATEANMNVSESKLKTYYKTWEPDITVRHILVDDEATAKEIQTKLKNGEKFTDLAKEYSTDTATSTNGGLLDPFGPGEMDETFEKAAYALENKDDVSGIVKSTYGYHLIQLVKKTEKGTYAKEKANVKAAYIESQLTTENMTAALKKELKAANIDIKDSDLKDAFADYTEGHHHHHH | soluble
MSLTKYIFVTGGVVSSIGKGIVAASLGRLLKNRGLKVTIQKFDPYINIDPGTMSPYQHGEVYVTDDGAETDLDLGHYERFIDINLNKYSNVTTGKIYSEVLRKERKGEYLGATVQVIPHITDALKEKIKRAATTTDSDVIITEVGGTVGDIESLPFLEALRQMKADVGADNVMYIHTTLLPYLKAAGEMKTKPTQHSVKELRGLGIQPNMLVIRTEQPAGQGIKNKLAQFCDVAPEAVIESLDVDHLYQIPLNLQAQNMDQIVCDHLKLDVPVADMTEWSAMVDKVMNLKKKTKIALVGKYVELPDAYLSVVEALKHSGYVNDTAIDLNWINANEVTPETVTDLLGDADGIIVPGGFGHRGTEGKIEAIRYARENDVPMLGICLGMQLTCVEYARHVLNLEGANSAELDPDTKYPVIDIMRDQIDIEDMGGTLRLGLYPCKLKSGSKTASAYSNQEVVQRRHRHRYEFNNAFRQQFEEAGFVFSGVSPDNRLVEVVELSDKKFFVAAQYHPELQSRPNRPEELYTAFITAAVENSQAHEGHHHHHH | soluble
MSLTLAFAYVRASTIEEVRQGSNERQKEAIRQYTYQKGYELEIFEDKAKSGRNTLRPEFERMLKSLDRRPQIVIVSKIDRFARSLSDLLKTLEYLDQNGVGFVSVNDPGIDTTTPNGRLLLQILGAFAEFERNMINSRTKAGREQAQSKGVKKGIITITTDPNSSSVDKLAAALEHHHHHH | soluble
